# Data: publication PMC3783652 (ACS chemical biology, 2013)
# B1: 4ISIsYTSD10, sTyr7 sulfopeptide of CXCR4 (peptide)
# peptide: ISIYTSD
# HELM: PEPTIDE1{[ac].I.S.I.[O=C([C@H](Cc1ccc(OS(=O)(=O)O)cc1)N[*:1])[*:2]].T.S.D.[am]}$$$$V2.0
# SMILES: CC[C@H](C)[C@H](NC(C)=O)C(=O)N[C@@H](CO)C(=O)N[C@H](C(=O)N[C@@H](Cc1ccc(OS(=O)(=O)O)cc1)C(=O)N[C@H](C(=O)N[C@@H](CO)C(=O)N[C@@H](CC(=O)O)C(N)=O)[C@@H](C)O)[C@@H](C)CC
# B2: 18SGDsYDSM24, sTyr21 sulfopeptide of CXCR4 (peptide)
# peptide: SGDYDSM
# HELM: PEPTIDE1{[ac].S.G.D.[O=C([C@H](Cc1ccc(OS(=O)(=O)O)cc1)N[*:1])[*:2]].D.S.M.[am]}$$$$V2.0
# SMILES: CSCC[C@H](NC(=O)[C@H](CO)NC(=O)[C@H](CC(=O)O)NC(=O)[C@H](Cc1ccc(OS(=O)(=O)O)cc1)NC(=O)[C@H](CC(=O)O)NC(=O)CNC(=O)[C@H](CO)NC(C)=O)C(N)=O
# B3: 9SDNsYTEE15, sTyr12 sulfopeptide of CXCR4 (peptide)
# peptide: SDNYTEE
# HELM: PEPTIDE1{[ac].S.D.N.[O=C([C@H](Cc1ccc(OS(=O)(=O)O)cc1)N[*:1])[*:2]].T.E.E.[am]}$$$$V2.0
# SMILES: CC(=O)N[C@@H](CO)C(=O)N[C@@H](CC(=O)O)C(=O)N[C@@H](CC(N)=O)C(=O)N[C@@H](Cc1ccc(OS(=O)(=O)O)cc1)C(=O)N[C@H](C(=O)N[C@@H](CCC(=O)O)C(=O)N[C@@H](CCC(=O)O)C(N)=O)[C@@H](C)O
# Target: wild type CXCL12 (stromal cell-derived factor-1/SDF-1) (UniProt P48061 22-93)
# Experiment: NMR titration
row,Binder,Kd
1,B1,4300 µM
2,"Ac-SDNYTEE-NH2 [9SDNYTEE15, unsulfated Tyr12 peptide of CXCR4]",2100 µM
3,B2,1800 µM
4,"Ac-ISIYTSD-NH2 [4ISIYTSD10, unsulfated Tyr7 peptide of CXCR4]",1900 µM
5,"Ac-SGDYDSM-NH2 [18SGDYDSM24, unsulfated Tyr21 peptide of CXCR4]",2700 µM
6,B3,1000 µM

# Target: CXCL12_(1), constitutively monomeric CXCL12 variant (L55C/I58C) (UniProt P48061 22-93, L55C | I58C)
# Experiment: NMR titration
row,Binder,Kd
1,B1,6100 µM
2,"Ac-SDNYTEE-NH2 [9SDNYTEE15, unsulfated Tyr12 peptide of CXCR4]",2700 µM
3,B2,1600 µM
4,"Ac-ISIYTSD-NH2 [4ISIYTSD10, unsulfated Tyr7 peptide of CXCR4]",1100 µM
5,"Ac-SGDYDSM-NH2 [18SGDYDSM24, unsulfated Tyr21 peptide of CXCR4]",1500 µM
6,B3,1800 µM
